Test results as given in US20200399344A1 (SHATTUCK LABS, published 2020).

Legend:
[1] = target: T1, PD-L1, plate-bound (Example 8) (Homo sapiens (Human), UniProt Q9NZQ7 19-238); assay: Dual ELISA (capturing with PDL1): coat hPDL1-Fc (R&D), detect hHLA-E (Novus), HRP Anti-6X His
T1 construct: not shown: The Fc carrier of the vendor's hPD-L1-Fc (R&D) and any linker

[2] = target: T2, recombinant hPD-L1 (hPD-L1-Fc) protein (human, UniProt Q9NZQ7 19-239); assay: dual ELISA; coat hPDL1-Fc, hPD1-fc-NKG2a titrated, detection HLA-E-His, Anti-His-6x-HRP; the signal needs both bindings
T2 construct: not shown: Fc
T2 sequence (Q9NZQ7 19-239 limits assumed): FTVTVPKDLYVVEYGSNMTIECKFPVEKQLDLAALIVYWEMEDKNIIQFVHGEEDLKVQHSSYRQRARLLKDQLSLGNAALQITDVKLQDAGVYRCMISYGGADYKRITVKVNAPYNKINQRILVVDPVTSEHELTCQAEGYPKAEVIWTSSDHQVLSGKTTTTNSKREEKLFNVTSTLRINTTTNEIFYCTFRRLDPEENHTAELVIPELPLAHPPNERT
Procedure: (§1) To understand whether the hPD-1-Fc-NKG2A chimeric protein can binds simultaneously to both hPD-L1 and HLA-E, the following ELISA experiment was carried out. Briefly, and recombinant hPD-L1 (hPD-L1-Fc) protein was coated on plates. Increasing amounts of the hPD-1-Fc-NKG2A chimeric protein was added to the plates for capture by the hPD-L1-Fc protein. Further, recombinant HLA-E (HLA-E-His) protein was added to the plate for capture by hPD-1-Fc-NKG2A chimeric protein. The binding of the HLA-E-His protein was detected using an anti-His 6× HRP antibody.

[3] = target: T3, hPD-L1 expressed on CHO-K1/hPD-L1 cells (human, UniProt Q9NZQ7 19-290); assay: flow cytometry cell binding assay, CHO-K1-Luc cells, detection Anti-hARC-PE
T3 construct: whole, on cells
T3 sequence (Q9NZQ7 19-290): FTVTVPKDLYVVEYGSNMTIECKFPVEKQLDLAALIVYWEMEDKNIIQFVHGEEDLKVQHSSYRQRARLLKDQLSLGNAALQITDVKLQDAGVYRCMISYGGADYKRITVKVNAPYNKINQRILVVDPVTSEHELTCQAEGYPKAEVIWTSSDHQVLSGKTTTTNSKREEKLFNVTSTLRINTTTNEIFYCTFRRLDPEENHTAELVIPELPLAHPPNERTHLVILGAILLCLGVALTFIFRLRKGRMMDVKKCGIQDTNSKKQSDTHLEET

[4] = target: T4, recombinant HLA-E-His protein (human, UniProt P13747 22-305, limits assumed); assay: ELISA (single-sided): coat hHLA-E-His (Novus), detect Anti-hFc (JAX); curve rises to about 0.4 at the highest concentration, no plateau
T4 construct: also called recombinant HLA-E (HLA-E-His); not shown: His tag
T4 sequence (P13747 22-305 limits assumed): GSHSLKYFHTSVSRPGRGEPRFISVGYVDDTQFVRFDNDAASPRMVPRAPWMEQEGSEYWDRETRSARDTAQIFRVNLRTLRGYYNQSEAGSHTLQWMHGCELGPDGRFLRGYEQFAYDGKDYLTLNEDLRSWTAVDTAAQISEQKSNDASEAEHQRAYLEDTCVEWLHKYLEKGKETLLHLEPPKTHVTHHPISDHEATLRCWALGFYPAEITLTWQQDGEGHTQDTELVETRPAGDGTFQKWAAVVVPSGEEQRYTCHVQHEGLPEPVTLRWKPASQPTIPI
Source text: As shown in FIG. 9C and FIG. 9D, binding of the hNKG2A domain of the hPD-1-Fc-hNKG2A chimeric protein was characterized by capturing to, respectively, a plate-bound HLA-E. In FIG. 9C, the hPD-1-Fc-hNKG2A chimeric protein was detected using an anti-human PD-1 antibody in conjunction with an HRP conjugated anti-mouse Fc antibody. In FIG. […]

[5] = target: T5, anti-human IgG antibody (plate-bound); assay: Fc ELISA: coat Anti-hFc (Jax), detect Anti-hFc-HRP (Jax)
T5 construct: also called anti-human Fc antibody

[6] = target: T4, recombinant HLA-E-His protein; assay: Dual binding ELISA (capturing with HLA-E): coat hHLA-E-His (Novus), detect Anti-hPD1 (Sino), HRP Anti-mFc-HRP
Source text: As shown in FIG. 9C and FIG. 9D, binding of the hNKG2A domain of the hPD-1-Fc-hNKG2A chimeric protein was characterized by capturing to, respectively, a plate-bound HLA-E. In FIG. 9C, the hPD-1-Fc-hNKG2A chimeric protein was detected using an anti-human PD-1 antibody in conjunction with an HRP conjugated anti-mouse Fc antibody. In FIG. 9D, the hPD-1-Fc-hNKG2A chimeric protein was directly detected via an HRP conjugated anti-mouse Fc antibody.

[7] = target: T6, recombinant human CD28-His (rhCD28-His) (human, UniProt P10747 19-152); assay: ELISA: coat rhCD28-His (Acro), detection Anti-hFc-HRP
T6 construct: also called Human CD28-His protein; recombinant CD28 protein; not shown: His tag
T6 sequence (P10747 19-152 limits assumed): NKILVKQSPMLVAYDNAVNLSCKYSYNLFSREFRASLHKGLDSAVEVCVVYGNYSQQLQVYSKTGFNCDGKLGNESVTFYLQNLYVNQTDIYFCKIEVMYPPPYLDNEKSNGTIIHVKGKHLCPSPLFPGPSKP
Procedure: To understand whether the CD80 and CD86 parts of the hCD80-Fc-NKG2A and hCD86-Fc-NKG2A chimeric protein can bind CD28, ELISA-based assays were performed. Briefly, recombinant CD28 protein was coated on plates and increasing amounts of the hCD80-Fc-NKG2A, hCD86-Fc-NKG2A, and mCD48-Fc-NKG2A chimeric proteins, and recombinant human CD86-Fc (rhCD86-Fc) protein was added to the plates for capture by the plate-bound recombinant CD28 protein. The mCD48-Fc-NKG2A chimeric protein, and recombinant human CDrhCD86-Fc protein was used as negative and positive controls, respectively. The chimeric proteins bound to the recombinant CD28 protein was detected using an anti-human Fc HRP.

[8] = target: T7, recombinant human CD28-Fc (rhCD28-Fc) protein (human, UniProt P10747 19-152); assay: dual ELISA; coat rhCD28-Fc, hCD80-fc-NKG2a titrated, detection HLA-E-His, Anti 6x-His-HRP; the signal needs both bindings
T7 construct: not shown: Fc
T7 sequence (P10747 19-152 limits assumed): as above
Procedure: as §1, with “hCD80-Fc-NKG2A” for “hPD-1-Fc-NKG2A”, “hCD28” for “hPD-L1”, “hCD28 (rhCD28-Fc)” for “hPD-L1 (hPD-L1-Fc)”, “recombinant human CD28-Fc (rhCD28-Fc)” for “hPD-L1-Fc”

[9] = target: T4, recombinant HLA-E-His protein; assay: ELISA: the chimeric protein is the titrated coat (1:3), detection HLA-E-His (Novus NBP2-47435PEP), HRP Anti-6x-His-HRP
Procedure: In a complementary experiment, increasing amounts of the hCD48-Fc-NKG2A, hCD58-Fc-NKG2A, and hCD80-Fc-NKG2A chimeric proteins or a negative control protein was coated on plates. Recombinant HLA-E-His protein was added to the plates for capture by the plate-bound chimeric proteins or the negative control protein. The captured HLA-E-His protein was detected using an anti-6×-His-HRP antibody.

[10] = target: T8, recombinant PD-L1 protein (mPD-L1-His) (mouse, UniProt Q9EP73 19-238); assay: ELISA; mPD1-Fc-NKG2a coated in rising amounts, detection mPD-L1-His, Anti-His-6x-HRP
T8 construct: not shown: His tag
T8 sequence (Q9EP73 19-238 limits assumed): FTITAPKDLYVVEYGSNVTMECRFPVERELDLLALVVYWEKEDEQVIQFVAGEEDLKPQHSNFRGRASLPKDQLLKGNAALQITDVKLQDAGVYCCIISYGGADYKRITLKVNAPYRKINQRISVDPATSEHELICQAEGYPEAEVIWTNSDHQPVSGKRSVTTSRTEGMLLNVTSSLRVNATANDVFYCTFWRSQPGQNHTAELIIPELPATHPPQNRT
Procedure: Programmed death-ligand 1 (PD-L1) is a PD-1 ligand. To understand whether the PD-1 parts of the PD-1-Fc-NKG2A chimeric protein can bind PD-L1, ELISA-based assays were performed. […] The chimeric protein bound to the recombinant PD-L1 protein was detected using an anti-His-6× HRP.

[11] = target: T9, anti-mFc IgG antibody (plate-bound); assay: ELISA: coat Anti-mFc (IgG) Jax #115-006-008, detection Anti-mFc (H+L) HRP
T9 construct: also called anti-Fc antibody
Procedure: To understand whether the Fc linkers from the native chimeric proteins can be accessed by anti-mouse Fc antibodies, ELISA-based assays were performed. For these assays, an anti-mFc IgG antibody was coated on plates and increasing amounts of the mPD-1-Fc-NKG2A and mSLAMF6-Fc-NKG2a chimeric proteins were added to the plates for capture by the plate-bound anti-mFc IgG antibody. The binding of the mPD-1-Fc-NKG2A and mSLAMF6-Fc-NKG2a chimeric proteins bound to the anti-mFc IgG antibody were detected using an anti-mFc HRP. An IgG antibody mouse Fc was used to generate a standard curve. mFc IgG was used as a positive control.

[12] = target: T10, recombinant mouse PD-L1-Fc (rmPD-L1-Fc) (mouse, UniProt Q9EP73 19-238); assay: dual ELISA; coat mPDL1-Fc, mPD1-Fc-NKG2a titrated, detection HLA-E-His, Anti-His-6x-HRP; the signal needs both bindings
T10 construct: also called rPD-L1-Fc; not shown: Fc
T10 sequence (Q9EP73 19-238 limits assumed): as above
Procedure: Increasing amounts of the mPD-1-Fc-NKG2A chimeric protein was added and detected using HLA-E-His. A chimeric protein comprising ECD of a type II transmembrane protein other than NKG2A was used as a negative control.
as §1, with “PD-1-Fc-NKG2A” for “hPD-1-Fc-NKG2A”, “PD-L1” for “hPD-L1”, “PD-L1 (rPD-L1-Fc)” for “hPD-L1 (hPD-L1-Fc)”, “rPD-L1-Fc” for “hPD-L1-Fc”

T1 sequence (Q9NZQ7 19-238 limits assumed): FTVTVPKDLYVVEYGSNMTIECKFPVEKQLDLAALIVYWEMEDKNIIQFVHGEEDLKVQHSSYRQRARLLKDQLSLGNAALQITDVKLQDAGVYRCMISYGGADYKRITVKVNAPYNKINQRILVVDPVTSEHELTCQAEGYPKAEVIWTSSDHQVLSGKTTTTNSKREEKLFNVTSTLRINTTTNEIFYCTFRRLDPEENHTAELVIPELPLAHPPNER

B1: human PD-1-Fc-hNKG2A chimeric protein (Fc fusion)
chain: not shown
notes: the Fc of the tested construct is therefore uncertain; also called hPD-1-Fc-hNKG2A; hPD-1-Fc-NKG2A
EC50 [1]: 0.0256 µM | EC50 (read off the curve) [2]: ~20 µg/mL | EC50 (read off the curve) [3]: ~1 µg/mL | EC50 [4]: ~24200 µM | EC50 [5]: 0.00964 µM | EC50 [6]: ~0.175 µM

B2: human CD80-Fc-NKG2A chimeric protein (Fc fusion)
chain: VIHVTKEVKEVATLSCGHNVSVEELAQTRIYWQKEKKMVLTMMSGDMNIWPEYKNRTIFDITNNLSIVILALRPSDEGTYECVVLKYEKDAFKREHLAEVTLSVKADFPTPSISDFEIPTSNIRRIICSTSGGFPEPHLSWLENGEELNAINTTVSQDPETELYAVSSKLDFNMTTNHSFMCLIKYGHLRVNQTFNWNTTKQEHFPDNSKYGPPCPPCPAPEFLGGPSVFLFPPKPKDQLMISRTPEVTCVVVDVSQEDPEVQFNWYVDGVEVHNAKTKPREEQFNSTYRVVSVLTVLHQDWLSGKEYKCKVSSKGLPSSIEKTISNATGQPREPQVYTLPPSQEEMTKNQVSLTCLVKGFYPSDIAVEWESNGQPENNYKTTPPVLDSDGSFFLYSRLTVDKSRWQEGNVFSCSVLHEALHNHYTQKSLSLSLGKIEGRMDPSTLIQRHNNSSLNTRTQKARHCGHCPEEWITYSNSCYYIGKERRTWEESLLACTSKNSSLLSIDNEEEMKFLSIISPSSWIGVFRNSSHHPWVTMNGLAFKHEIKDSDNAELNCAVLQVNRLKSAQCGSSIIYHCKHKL
notes: also called hCD80-Fc-NKG2A
binding result [7]: binds | binding result [8]: binds | EC50 (read off the curve) [9]: ~0.9 µg/mL

B3: mouse PD-1-Fc-NKG2A chimeric protein (Fc fusion)
chain: SGWLLEVPNGPWRSLTFYPAWLTVSEGANATFTCSLSNWSEDLMLNWNRLSPSNQTEKQAAFCNGLSQPVQDARFQIIQLPNRHDFHMNILDTRRNDSGIYLCGAISLHPKAKIEESPGAELVVTERILETSTRYPSPSPKPEGRFQGMVPRDCGCKPCICTVPEVSSVFIFPPKPKDVLTITLTPKVTCVVVDISKDDPEVQFSWFVDDVEVHTAQTQPREEQFNSTFRSVSELPIMHQDWLNGKEFKCRVNSAAFPAPIEKTISKTKGRPKAPQVYTIPPPKEQMAKDKVSLTCMITDFFPEDITVEWQWNGQPAENYKNTQPIMDTDGSYFVYSKLNVQKSNWEAGNTFTCSVLHEGLHNHHTEKSLSHSPGIIEGRMDTPYTEAKAQINSSMTRTHRDINYTLSSAQPCPHCPKEWISYSHNCYFIGMERKSWNDSLVSCISKNCSLLYIDSEEEQDFLQSLSLISWTGILRKGRGQPWVWKEDSIFKPKIAEILHDECNCAMMSASGLTADNCTTLHPYLCKCKFPI
notes: also called mPD-1-Fc-NKG2A; mPD1-Fc-NKG2A
EC50 (read off the curve) [10]: ~20 µg/mL | EC50 (read off the curve) [11]: ~0.08 µg/mL | EC50 (read off the curve) [12]: ~40 µg/mL
